The values below come from US20110124571A1 (INSTITUT PASTEUR, published 2011).

The target of this assay is Recombinant human NEP (neutral endopeptidase, EC 3.4.24.11), devoid of its N-terminal cytosol and … (human, UniProt P08473 52-750). The assay can be described thus: cell-based or functional assay.
Recombinant human NEP (neutral endopeptidase, EC 3.4.24.11), devoid of its N-terminal cytosol and …, sequence (P08473 52-750): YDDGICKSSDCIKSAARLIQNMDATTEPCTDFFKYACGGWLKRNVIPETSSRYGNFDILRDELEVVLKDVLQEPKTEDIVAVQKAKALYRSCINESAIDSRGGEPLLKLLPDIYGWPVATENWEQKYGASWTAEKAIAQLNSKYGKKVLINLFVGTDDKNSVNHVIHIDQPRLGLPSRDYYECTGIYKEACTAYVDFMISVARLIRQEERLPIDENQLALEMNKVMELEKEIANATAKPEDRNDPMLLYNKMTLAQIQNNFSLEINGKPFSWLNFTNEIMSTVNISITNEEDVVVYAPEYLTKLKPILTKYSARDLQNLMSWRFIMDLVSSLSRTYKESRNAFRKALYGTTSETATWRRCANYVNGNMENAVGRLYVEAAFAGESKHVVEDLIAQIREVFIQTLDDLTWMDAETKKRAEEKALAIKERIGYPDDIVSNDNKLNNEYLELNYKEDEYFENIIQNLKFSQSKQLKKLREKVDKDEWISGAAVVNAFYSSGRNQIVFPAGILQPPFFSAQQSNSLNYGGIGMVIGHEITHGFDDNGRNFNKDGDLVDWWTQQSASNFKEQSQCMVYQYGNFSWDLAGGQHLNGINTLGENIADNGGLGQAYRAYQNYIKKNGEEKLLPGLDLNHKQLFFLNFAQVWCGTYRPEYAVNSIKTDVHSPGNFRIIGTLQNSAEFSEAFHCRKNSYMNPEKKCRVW

CQRFSR (spacer -HN-(CH2)6-CO- (amino-hexanoic-acid) between Cys and Gln) [NH2-C-(C6-polyethylene)QRFSR-COOH]: the “IC50, inhibition of Abz-dR-G-L-EDDnp cleavage by rhNEP (endopeptidase activity)” value turned out to be 40 µM.
